According to publication doi:10.1101/2021.10.29.466387 (bioRxiv, 2021):
Where “and” joins values, the source holds several entries; their conditions need not be identical. Identical values can stand only once.

Assays:
native gel or EMSA = target: the molecule itself; experiment: native gel or EMSA
[1] = target: the molecule itself; experiment: SDS-PAGE of samples folded in detergent micelles

Row | Protein | stoichiometry N (native gel or EMSA) | stoichiometry N [1]
1 | FLAG-OmpC (natural protein) AEVYNKDGNKLDLYGKVDGLHYFSDNKDVDGDQTYMRLGFKGETQVTDQLTGYGQWEYQIQGNSAENENNSWTRVAFAGLKFQDVGSFDYGRNYGVVYDVTSWTDVLPEFGGDTYGSDNFMQQRGNGFATYRNTDFFGLVDGLNFAVQYQGKNGNPSGEGFTSGVTNNGRDALRQNGDGVGGSITYDYEGFGIGGAISSSKRTDAQNTAAYIGNGDRAETYTGGLKYDANNIYLAAQYTQTYNATRVGSLGWANKAQNFEAVAQYQFDFGLRPSLAYLQSKGKNLGRGYDDEDILKYVDVGATYYFNKNMSTYVDYKINLLDDNQFTRDAGINTDNIVALGLVYQF | 2 and 3 | –
2 | OmpC-His6 (natural protein) AEVYNKDGNKLDLYGKVDGLHYFSDNKDVDGDQTYMRLGFKGETQVTDQLTGYGQWEYQIQGNSAENENNSWTRVAFAGLKFQDVGSFDYGRNYGVVYDVTSWTDVLPEFGGDTYGSDNFMQQRGNGFATYRNTDFFGLVDGLNFAVQYQGKNGNPSGEGFTSGVTNNGRDALRQNGDGVGGSITYDYEGFGIGGAISSSKRTDAQNTAAYIGNGDRAETYTGGLKYDANNIYLAAQYTQTYNATRVGSLGWANKAQNFEAVAQYQFDFGLRPSLAYLQSKGKNLGRGYDDEDILKYVDVGATYYFNKNMSTYVDYKINLLDDNQFTRDAGINTDNIVALGLVYQF | – | 3
3 | ^35S-labelled OmpC (natural protein, ^35S-methionine label) MKVKVLSLLVPALLVAGAANAAEVYNKDGNKLDLYGKVDGLHYFSDNKDVDGDQTYMRLGFKGETQVTDQLTGYGQWEYQIQGNSAENENNSWTRVAFAGLKFQDVGSFDYGRNYGVVYDVTSWTDVLPEFGGDTYGSDNFMQQRGNGFATYRNTDFFGLVDGLNFAVQYQGKNGNPSGEGFTSGVTNNGRDALRQNGDGVGGSITYDYEGFGIGGAISSSKRTDAQNTAAYIGNGDRAETYTGGLKYDANNIYLAAQYTQTYNATRVGSLGWANKAQNFEAVAQYQFDFGLRPSLAYLQSKGKNLGRGYDDEDILKYVDVGATYYFNKNMSTYVDYKINLLDDNQFTRDAGINTDNIVALGLVYQF | 3 | –
4 | ^35S-labelled OmpC(Y286A) (natural protein, ^35S-methionine label) MKVKVLSLLVPALLVAGAANAAEVYNKDGNKLDLYGKVDGLHYFSDNKDVDGDQTYMRLGFKGETQVTDQLTGYGQWEYQIQGNSAENENNSWTRVAFAGLKFQDVGSFDYGRNYGVVYDVTSWTDVLPEFGGDTYGSDNFMQQRGNGFATYRNTDFFGLVDGLNFAVQYQGKNGNPSGEGFTSGVTNNGRDALRQNGDGVGGSITYDYEGFGIGGAISSSKRTDAQNTAAYIGNGDRAETYTGGLKYDANNIYLAAQYTQTYNATRVGSLGWANKAQNFEAVAQAQFDFGLRPSLAYLQSKGKNLGRGYDDEDILKYVDVGATYYFNKNMSTYVDYKINLLDDNQFTRDAGINTDNIVALGLVYQF | 3 | –
5 | OmpF (natural protein) AEIYNKDGNKVDLYGKAVGLHYFSKGNGENSYGGNGDMTYARLGFKGETQINSDLTGYGQWEYNFQGNNSEGADAQTGNKTRLAFAGLKYADVGSFDYGRNYGVVYDALGYTDMLPEFGGDTAYSDDFFVGRVGGVATYRNSNFFGLVDGLNFAVQYLGKNERDTARRSNGDGVGGSISYEYEGFGIVGAYGAADRTNLQEAQPLGNGKKAEQWATGLKYDANNIYLAANYGETRNATPITNKFTNTSGFANKTQDVLLVAQYQFDFGLRPSIAYTKSKAKDVEGIGDVDLVNYFEVGATYYFNKNMSTYVDYIINQIDSDNKLGVGSDDTVAVGIVYQF | 3 and 2 | –
